# Experimental data: patent US8357523B2, “Beta-glucosidase variant enzymes and related polynucleotides” (Codexis, Inc., priority 2009, dated 2013)
# Assay: High throughput cellobiose assay: fold improvement in cellobiase activity of CelA variants over a control enzyme (Tables 2A-2D, 3, 5, 6, 7)
# Type: biochemical
# Settings: 3.3 g/l cellobiose, 50° C. and pH 6.5; compared to native CelA (SEQ ID NO: 4)
row,Molecule,Fold improvement over wildtype CelA
1,45 (protein) STAIAQEGAAPAAILHPEKWPRPATQRLIDPAVEKRVDALLKQLSVEEKVGQVIQGDIGTITPEDLRKYPLGSILAGGNSGPNGDDRAPPKEWLDLADAFYRVSLEKRPGHTPIPVLFGIDAVHGHGNIGSATIFPHNIALGATHDPELLRRIGEVTAVEMAATGIDWTFAPALSVVRDDRWGRTYEGFSEDPEIVAAYSAAIVEGVQGKFGSKDFMAPGRIVASAKHFLADGGTDQGRDQGDARISEDELIRIHNAGYPPAIDAGVLTVMASFSSWQGIKHHGHKQLLTDVLKGQMGFNGFIVGDWNAHDQVPGCTKFNCPTSLIAGLDMYMAADSWKQLYENTLAQVKDGTIPMARLDDAVRRILRVKVLAGLFEKPAPKDRPGLPGLETLGSPEHRAVGREAVRKSLVLLKNDKGTLPLSPKARVLVAGDGADNIGKQSGGWTISWQGTGNRNDEFPGATSILGGIRDAVADAGGSVEFDVAGNYKTKPDVAIVVFGEEPYAEFQGDVETLEYQPDQKQDLALLKKLKDQGIPVVAVFLSGRPMWVNPELNASDAFVAAWLPGTEGGGVADVLFTDKAGKVQHDFAGKLSYSWPRTAAQTTVNRGDADYNPLFAYGYGLTYKDKSKVGTLPEESGVPAEARQNAGIYFRAGALRLPGRFL,+ (+ = 1.1 to 2.0 fold improvement over native CelA (SEQ ID NO: 4))
2,46 (protein) STAIAQEGAAPAAILHPEKWPRPATQRLIDPAVEKRVDALLKQLSVEEKVGQVIQGDIGTITPEDLRKYPLGSILAGGNSGPNGDDRAPPKEWLDLADAFYRVSLEKRPGHTPIPVLFGIDAVHGHGNIGSATIFPHNIALGATHDPELLRRIGEVTAVEMAATGIDWTFAPALSVVRDDRWGRTYEGFSEDPEIVAAYSAAIVEGVQGKFGSKDFMAPGRIVASAKHFLADGGTDQGRDQGDARISEDELIRIHNAGYPPAIDAGVLTVMASFSSWQGIKHHGHKQLLTDVLKGQMGFNGFIVGDWNAHDQVPGCTKFNCPTSLIAGLDMYMAADSWKQLYENTLAQVKDGTIPMARLDDAVRRILRVKVLAGLFEKPAPKDRPGRPGLETLGSPEHRAVGREAVRKSLVLLKNDKGTLPLSPKARVLVAGDGADNIGKQSGGWTISWQGTGNRNDEFPGATSILGGIRDAVADAGGSVEFDVAGQYKTKPDVAIVVFGEEPYAEFQGDVETLEYQPDQKQDLALLKKLKDQGIPVVAVFLSGRPMWVNPELNASDAFVAAWLPGTEGGGVADVLFTDKAGKVQHDFAGKLSYSWPRTAAQTTVNRGDADYNPLFAYGYGLTYKDKSKVGTLPEESGVPAEARQNAGIYFRAGALRLPGRFL,+ (+ = 1.1 to 2.0 fold improvement over native CelA (SEQ ID NO: 4))
3,47 (protein) STAIAQEGAAPAAILHPEKWPRPATQRLIDPAVEKRVDALLKQLSVEEKVGQVIQGDIGTITPEDLRKYPLGSILAGGNSGPNGDDRAPPKEWLDLADAFYRVSLEKRPGHTPIPVLFGIDAVHGHGNIGSATIFPHNIALGATHDPELLRRIGEVTAVEMAATGIDWTFAPALSVVRDDRWGRTYEGFSEDPEIVAAYSAAIVEGVQGKFGSKDFMAPGRIVASAKHFLADGGTDQGRDQGDARISEDELIRIHNAGYPPAIDAGVLTVMASFSSWQGIKHHGHKQLLTDVLKGQMGFNGFIVGDWNAHDQVPGCTKFNCPTSLIAGLDMYMAADSWKQLYENTLAQVKDGTIPMARLDDAVRRILRVKVLAGLFEKPAPKDRPGLPGLETLGSPEHRAVGREAVRKSLVLLKNDKGTLPLSPKARVLVAGDGADNIGKQSGGWTISWQGTGNRNDEFPGATSILGGIRDAVAKAGGSVEFDVAGQYKTKPDVAIVVFGEEPYAEFQGDVETLEYQPDQKQDLALLKKLKDQGIPVVAVFLSGRPMWVNPELNASDAFVAAWLPGTEGGGVADVLFTDKAGKVQHDFAGKLSYSWPRTAAQTTVNRGDADYNPLFAYGYGLTYKDKSKVGTLPEESGVPAEARQNAGIYFRAGALRLPGRFL,+ (+ = 1.1 to 2.0 fold improvement over native CelA (SEQ ID NO: 4))
4,48 (protein) STAIAQEGAAPAAILHPEKWPRPATQRLIDPAVEKRVDALLKQLSVEEKVGQVIQGDIGTITPEDLRKYPLGSILAGGDSGPNGDDRAPPKEWLDLADAFYRVSLEKRPGHTPIPVLFGIDAVHGHGNIGSATIFPHNIALGATHDPELLRRIGEVTAVEMAATGIDWTFAPALSVVRDDRWGRTYEGFSEDPEIVAAYSAAIVEGVQGKFGSKDFMAPGRIVASAKHFLADGGTDQGRDQGDARISEDELIRIHNAGYPPAIDAGVLTVMASFSSWQGIKHHGHKQLLTDVLKGQMGFNGFIVGDWNAHDQVPGCTKFNCPTSLIAGLDMYMAADSWKQLYENTLAQVKDGTIPMARLDDAVRRILRVKVLAGLFEKPAPKDRPGLPGLETLGSPEHRAVGREAVRKSLVLLKNDKGTLPLSPKARVLVAGDGADNIGKQSGGWTISWQGTGNRNDEFPGATSILGGIRDAVADAGGSVEFDVAGQYKTKPDVAIVVFGEEPYAEFQGDVETLEYQPDQKQDLALLKKLKDQGIPVVAVFLSGRPMWVNPELNASDAFVAAWLPGTEGGGVADVLFTDKAGKVQHDFAGKLSYSWPRTAAQTTVNRGDADYNPLFAYGYGLTYKDKSKVGTLPEESGVPAEARQNAGIYFRAGALRLPGRFL,++ (++ = 2.1 to 2.6 fold improvement over native CelA (SEQ ID NO: 4))
5,49 (protein) STAIAQEGAAPAAILHPEKWPRPATQRLIDPAVEKRVDALLKQLSVEEKVGQVIQGDIGTITPEDLRKYPLGSILAGGNSGPNGDDRAPPKEWLDLADAFYRVSLEKRPGHTPIPVLFGIDAVHGHGNIGSATIFPHNIALGATHDPELLRRIGEVTAVEMAATGIDWTFAPALSVVRDDRWGRTYEGFSEDPEIVAAYSAAIVEGVQGKFGSKDFMAPGRIVASAKHFLADGGTDQGRDQGDARISEDELIRIHNAGYPPAIDAGVLTVMASFSSWQGIKHHGHKQLLTDVLKGQMGFNGFIVGDWNAHDQVPGCTKFNCPTSLIAGLDMYMAADSWKQLYENTLAQVKDGTIPMARLDDAVRRILRVKVLAGLFEKPAPKDRPGLPGLETLGSPEHRAVGREAVRKSLVLLKNDKGTLPLSPKARVLVAGDGADNIGKQSGGWTISWQGTGNRNDEFPGATSILGGIRDAVADAGGSVEFDVAGDYKTKPDVAIVVFGEEPYAEFQGDVETLEYQPDQKQDLALLKKLKDQGIPVVAVFLSGRPMWVNPELNASDAFVAAWLPGTEGGGVADVLFTDKAGKVQHDFAGKLSYSWPRTAAQTTVNRGDADYNPLFAYGYGLTYKDKSKVGTLPEESGVPAEARQNAGIYFRAGALRLPGRFL,+ (+ = 1.1 to 2.0 fold improvement over native CelA (SEQ ID NO: 4))
6,50 (protein) STAIAQEGAAPAAILHPEKWPRPATQRLIDPAVEKRVDALLKQLSVEEKVGQVIQGDIGTITPEDLRKYPLGSILAGGNSGPNGDDRAPPKEWLDLADAFYRVSLEKRPGHTPIPVLFGIDAVHGHGNIGSATIFPHNIALGATHDPELLRRIGEVTAVEMAATGIDWTFAPALSVVRDDRWGRTYEGFSEDPEIVAAYSAAIVEGVQGKFGSKDFMAPGRIVASAKHFLADGGTDQGRDQGDARISEDELIRIHNAGYPPAIDAGVLTVMASFSSWQGIKHHGHKQLLTDVLKGQMGFNGFIVGDWNAHDQVPGCTKFNCPTSLIAGLDMYMAADSWKQLYENTLAQVKDGTIPMARLDDAVRRILRVKVLAGLFEKPAPKDRPGLPGLETLGSPEHRAVGREAVRKSLVLLKNDKGTLPLSPKARVLVAGDGADNIGKQSGGWTISWQGTGNRNDEFPGATSILGGIRDAVADAGGSVEFDVAGQYKTKPDVAIVVFGEEPYAEFQGDVETLEYQPDQKQDLALLKKLKDQGIPVVAVFLSGRPMWVNPELNASDAFVAAWLPGTEGGGVADVLFTDKAGKVQHDFAGKLSYSWPRTAAQTTVNRGDADYNPLFAYGYGLTYKDKSCVGTLPEESGVPAEARQNAGIYFRAGALRLPGRFL,+ (+ = 1.1 to 2.0 fold improvement over native CelA (SEQ ID NO: 4))
